Results published in patent publication US6764837 (BOARD OF TRUSTEES OF THE UNIVERSITY OF ARKANSAS, dated 2004).

T1: RpoA (RNAP alpha subunit), untagged (Agrobacterium tumefaciens) (UniProt P0A4E3)
T1 sequence: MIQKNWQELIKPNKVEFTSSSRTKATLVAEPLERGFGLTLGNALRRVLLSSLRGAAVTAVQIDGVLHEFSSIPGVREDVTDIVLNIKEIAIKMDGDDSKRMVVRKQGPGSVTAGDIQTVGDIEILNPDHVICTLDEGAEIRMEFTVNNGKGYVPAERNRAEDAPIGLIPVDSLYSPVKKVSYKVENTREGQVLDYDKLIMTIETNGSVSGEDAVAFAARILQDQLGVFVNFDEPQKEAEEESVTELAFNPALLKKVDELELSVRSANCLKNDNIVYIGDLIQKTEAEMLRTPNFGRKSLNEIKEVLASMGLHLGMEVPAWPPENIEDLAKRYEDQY

T2: RpoA delta C-terminal 8 (residues 1-328) deletion of 329-336 (Agrobacterium tumefaciens) (UniProt P0A4E3)
T2 sequence: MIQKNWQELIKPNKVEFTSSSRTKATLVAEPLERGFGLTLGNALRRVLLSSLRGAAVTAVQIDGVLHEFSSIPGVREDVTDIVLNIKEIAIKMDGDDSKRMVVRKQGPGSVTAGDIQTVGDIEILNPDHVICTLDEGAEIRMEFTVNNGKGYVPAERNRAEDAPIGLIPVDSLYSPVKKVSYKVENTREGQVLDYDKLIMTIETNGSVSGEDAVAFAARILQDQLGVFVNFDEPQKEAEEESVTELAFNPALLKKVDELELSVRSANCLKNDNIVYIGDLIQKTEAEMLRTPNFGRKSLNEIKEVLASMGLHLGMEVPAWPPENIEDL

B1: His-tagged RpoA (α subunit of RNA polymerase) of A. tumefaciens (other)
chain: T1 sequence
notes: not shown: N-terminal His tag from a pQE vector (Qiagen)

Tests used:
[1] = target: T1, RpoA (RNAP alpha subunit), untagged (Agrobacterium tumefaciens); assay: cell_activity; settings: pPS1.3 in E. coli MC4100(pSY215) with VirGcon; vector control 3; indirect reporter
[2] = target: T2, RpoA delta C-terminal 8 (residues 1-328) deletion of 329-336 (Agrobacterium tumefaciens); assay: cell_activity; settings: pAD8 in E. coli MC4100(pSY215) with VirGcon; vector control 3; indirect reporter
[3] = target: T3, E. coli RNA polymerase β′ subunit (Escherichia coli, UniProt P0A8T7 1-1407); assay: in vitro reconstitution of RNAP, SDS-PAGE (FIG. 4A)
T3 construct: also called E. coli β′

[4] = target: T4, E. coli RNA polymerase σ70 subunit (Escherichia coli, UniProt P00579 1-613); assay: as above
T4 construct: also called σ^70

[5] = target: T5, E. coli RNA polymerase β subunit (Escherichia coli, UniProt P0A8V2 1-1342); assay: as above
T5 construct: also called E. coli β
T5 sequence (P0A8V2 whole entry): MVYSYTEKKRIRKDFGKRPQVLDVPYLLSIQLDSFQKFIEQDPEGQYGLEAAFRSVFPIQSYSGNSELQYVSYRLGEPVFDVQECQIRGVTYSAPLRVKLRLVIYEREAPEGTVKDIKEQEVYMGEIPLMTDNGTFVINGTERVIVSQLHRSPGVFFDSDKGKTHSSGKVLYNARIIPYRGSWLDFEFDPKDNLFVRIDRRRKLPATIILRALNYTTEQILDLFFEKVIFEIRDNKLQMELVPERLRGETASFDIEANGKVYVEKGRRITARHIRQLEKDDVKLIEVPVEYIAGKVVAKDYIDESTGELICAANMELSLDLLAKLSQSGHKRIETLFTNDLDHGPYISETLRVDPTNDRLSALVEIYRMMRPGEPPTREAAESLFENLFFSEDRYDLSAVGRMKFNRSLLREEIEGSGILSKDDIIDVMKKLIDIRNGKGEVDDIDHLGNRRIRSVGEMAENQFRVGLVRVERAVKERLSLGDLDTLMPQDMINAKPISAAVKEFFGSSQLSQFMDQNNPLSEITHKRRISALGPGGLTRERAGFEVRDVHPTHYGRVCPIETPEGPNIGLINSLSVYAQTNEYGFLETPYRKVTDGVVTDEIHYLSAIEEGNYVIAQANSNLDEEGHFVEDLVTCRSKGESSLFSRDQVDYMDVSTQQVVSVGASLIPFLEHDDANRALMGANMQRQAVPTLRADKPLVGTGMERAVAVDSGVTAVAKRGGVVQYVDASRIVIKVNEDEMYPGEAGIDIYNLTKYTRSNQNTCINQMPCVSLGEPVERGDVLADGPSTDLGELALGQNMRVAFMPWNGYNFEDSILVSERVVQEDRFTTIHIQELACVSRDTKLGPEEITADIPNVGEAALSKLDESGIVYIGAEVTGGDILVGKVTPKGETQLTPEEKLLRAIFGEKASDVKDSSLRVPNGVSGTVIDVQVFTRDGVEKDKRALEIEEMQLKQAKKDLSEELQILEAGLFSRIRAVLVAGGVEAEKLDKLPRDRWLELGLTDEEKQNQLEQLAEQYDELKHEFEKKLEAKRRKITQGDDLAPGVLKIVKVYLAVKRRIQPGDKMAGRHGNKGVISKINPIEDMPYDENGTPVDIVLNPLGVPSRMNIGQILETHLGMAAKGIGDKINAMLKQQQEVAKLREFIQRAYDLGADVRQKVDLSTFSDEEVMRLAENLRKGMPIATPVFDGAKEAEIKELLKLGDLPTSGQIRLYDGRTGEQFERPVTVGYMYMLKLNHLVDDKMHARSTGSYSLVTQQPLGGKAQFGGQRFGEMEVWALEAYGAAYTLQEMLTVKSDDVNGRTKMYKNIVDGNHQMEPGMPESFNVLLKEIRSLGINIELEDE

T4 sequence (P00579 whole entry): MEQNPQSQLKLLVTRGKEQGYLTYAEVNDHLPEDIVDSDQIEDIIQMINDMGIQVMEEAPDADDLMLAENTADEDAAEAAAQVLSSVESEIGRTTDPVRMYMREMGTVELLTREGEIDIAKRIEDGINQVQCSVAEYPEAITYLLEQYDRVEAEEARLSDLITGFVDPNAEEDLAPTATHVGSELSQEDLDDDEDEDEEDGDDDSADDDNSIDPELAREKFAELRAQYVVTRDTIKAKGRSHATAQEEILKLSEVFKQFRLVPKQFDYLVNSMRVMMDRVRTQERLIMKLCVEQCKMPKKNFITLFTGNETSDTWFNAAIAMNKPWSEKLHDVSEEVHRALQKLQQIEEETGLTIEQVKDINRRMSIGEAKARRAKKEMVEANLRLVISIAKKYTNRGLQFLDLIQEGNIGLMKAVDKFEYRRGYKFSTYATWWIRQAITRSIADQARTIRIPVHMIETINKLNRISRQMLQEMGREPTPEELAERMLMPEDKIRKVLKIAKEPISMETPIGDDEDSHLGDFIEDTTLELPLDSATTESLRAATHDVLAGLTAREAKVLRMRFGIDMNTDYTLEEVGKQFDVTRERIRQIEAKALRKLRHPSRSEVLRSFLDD
T3 sequence (P0A8T7 whole entry): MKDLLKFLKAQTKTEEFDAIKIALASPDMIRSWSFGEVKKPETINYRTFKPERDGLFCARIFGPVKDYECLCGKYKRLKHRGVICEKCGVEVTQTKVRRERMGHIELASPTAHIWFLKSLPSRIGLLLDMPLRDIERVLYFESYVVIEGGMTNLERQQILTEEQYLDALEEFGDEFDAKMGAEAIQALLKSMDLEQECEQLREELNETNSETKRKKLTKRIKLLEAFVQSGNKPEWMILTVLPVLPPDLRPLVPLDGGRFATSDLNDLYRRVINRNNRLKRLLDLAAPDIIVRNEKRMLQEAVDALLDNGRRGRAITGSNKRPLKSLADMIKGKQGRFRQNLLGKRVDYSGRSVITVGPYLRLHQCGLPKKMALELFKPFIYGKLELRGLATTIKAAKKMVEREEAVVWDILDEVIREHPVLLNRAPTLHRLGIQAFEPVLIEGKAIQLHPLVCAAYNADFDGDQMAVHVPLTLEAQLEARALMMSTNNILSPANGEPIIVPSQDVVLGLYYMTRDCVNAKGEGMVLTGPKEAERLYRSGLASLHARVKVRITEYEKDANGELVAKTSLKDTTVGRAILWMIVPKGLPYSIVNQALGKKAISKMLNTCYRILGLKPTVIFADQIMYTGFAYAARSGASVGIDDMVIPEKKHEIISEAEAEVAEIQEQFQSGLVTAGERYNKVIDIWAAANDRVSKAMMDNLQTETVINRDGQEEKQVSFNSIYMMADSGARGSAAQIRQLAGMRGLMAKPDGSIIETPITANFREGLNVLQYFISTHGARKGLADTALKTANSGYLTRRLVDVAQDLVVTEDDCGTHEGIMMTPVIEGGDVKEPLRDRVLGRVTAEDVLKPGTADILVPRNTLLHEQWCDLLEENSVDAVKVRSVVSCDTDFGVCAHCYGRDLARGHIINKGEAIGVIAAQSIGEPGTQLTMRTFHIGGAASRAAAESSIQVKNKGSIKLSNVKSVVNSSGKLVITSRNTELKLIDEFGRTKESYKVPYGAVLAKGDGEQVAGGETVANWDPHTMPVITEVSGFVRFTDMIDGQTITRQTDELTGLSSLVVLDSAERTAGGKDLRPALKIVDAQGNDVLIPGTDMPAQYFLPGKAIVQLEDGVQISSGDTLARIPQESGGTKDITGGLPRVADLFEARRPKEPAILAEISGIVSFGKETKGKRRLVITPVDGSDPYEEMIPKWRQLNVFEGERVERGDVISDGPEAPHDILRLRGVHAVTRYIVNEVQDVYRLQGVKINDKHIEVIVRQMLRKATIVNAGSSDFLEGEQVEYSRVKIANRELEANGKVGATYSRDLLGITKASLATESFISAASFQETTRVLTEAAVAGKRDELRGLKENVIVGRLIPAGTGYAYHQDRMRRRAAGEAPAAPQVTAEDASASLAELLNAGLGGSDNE

Molecule	activity [1] [Miller units]	activity [2] [Miller units]	binding result [3]	binding result [4]	binding result [5]
virBp::lacZ reporter promoter	140	4			
B1			binds	binds	binds
